For orientation: Kd means the free concentration of one partner at which half of the binding sites on the other are occupied at equilibrium, for simple one-to-one binding. Lower therefore signals tighter binding.

For the test, the target named is A2A adenosine receptor A2AAR N154Q (residues 1-316) (Homo sapiens, UniProt P29274, N154Q). Kind of test: SPR.
Sequence of A2A adenosine receptor A2AAR N154Q (residues 1-316) (P29274 1-316 N154Q): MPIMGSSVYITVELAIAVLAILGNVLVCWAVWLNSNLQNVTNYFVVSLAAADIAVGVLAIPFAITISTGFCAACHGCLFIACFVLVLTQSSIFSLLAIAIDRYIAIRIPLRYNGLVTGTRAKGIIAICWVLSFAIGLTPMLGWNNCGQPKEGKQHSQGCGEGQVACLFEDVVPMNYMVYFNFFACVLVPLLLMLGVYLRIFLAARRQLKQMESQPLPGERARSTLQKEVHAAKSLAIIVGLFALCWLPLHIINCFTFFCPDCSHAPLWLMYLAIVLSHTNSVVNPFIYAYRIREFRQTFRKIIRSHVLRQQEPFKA

B1: Fab2838, Fab fragment of mouse monoclonal antibody IgG2838 (Fab, V domains shown)
VH: EVQLQQSGAELVKPGSSVKISCKTSGDSFTAYNMNWVKQSHGKSLEWIGNINPYYGSTRYNQKFKGKATLTVDKSSSTAYIQLNSLTSEDSAVYYCAREGNYYDGGSVRYFDYWGQGTTLTVSS
VL: DIVMTQSPASLSASVGDTVTITCRASEFIYSSLTWYQQKQGGSPQLLVYAATNLADAVPSRFSGSGSGTQFSLKINRLQPEDFGTYYCQHFYGSTWAFGGGTKLEIK
As for B1, the Kd was found to be 4.4 nM.

Values taken from paper PMC3303121 (Nature, 2012).
